Data published in patent US20170081647A1, “GENETIC DETECTION PLATFORM” (Pharmozyme, Inc., priority 2014, published 2017).

Key:
Taq polymerase = molecular target: T1, Taq polymerase (Thermus aquaticus, UniProt P19821, A391P/R392G/V390W); experiment: Polymerase activity in the presence of a polymerase inhibitor (amplification reaction at 45° C.); type: biochemical
T1 construct: made in house; host or cells: E. coli Rosetta 2 (DE3), plasmid pET21-Biotin-His6-ABP-Taq
Description: The assay was fixed at a final volume of 100 μl, and contained reaction components at the following final concentrations: oligonucleotide of SEQ ID NO: 8; 40 μM, dNTPs; 200 μM (each), APS; 1.6 mM, ATP sulfurylase; 0.12 Units, D-Luciferin; 0.3 mM, and Luciferase; 3 μg.
FIG. 9 illustrates a luminescence assay that indicates the Taq polymerase activity. As shown in FIG. 9A and FIG. 9B, a time course is initially indicated with a lag phase, normally less than 2 minutes, followed by a linear increase in luminescence. The rate of luminescence increase (slope) defines the Taq polymerase activity.
Hot Start Taq DNA polymerase was obtained from New England BioLabs (NEB). Taq polymerase from New England BioLabs was tested as a control. An amplification reaction was performed to determine the activity of Bio-HIS-ABS-Taq in the presence of human serum albumin (HSA) at 45° C. and to compare the activity of Bio-HIS-ABS-Taq in the presence of HSA with Hot Start Taq polymerase (NEB). The ratio of Bio-HIS-ABS-Taq to HSA is 1:1. Table 2 illustrates the activity of Bio-HIS-ABS-Taq in the presence of HSA compared to the activity of Hot Start Taq Polymerase from NEB.

[1] = molecular target: human serum albumin (HSA), P02768
[2] = Protamine-based method optimization: Qubit protein remaining; details: protamine beads
Description: For protamine attachment, NHS-activated Sepharose beads were utilized and coupling was performed in 0.1 M HEPES buffer (pH 7.0), with a protein to bead ratio of 25 mg of the protein to 1 ml bead suspension (0.5 ml packed), pre-washed with 1 mM HCl. Attachment of protamine to beads was completed by leaving the suspension on rotation overnight at 4° C., followed by washing with 0.1 M Tris (pH 8.5), to block any remaining NHS groups on beads. The procedure ensured overall coverage of Sepharose beads with the highly charged protamine molecules.
DNA contaminant removal was accomplished using 15 μl of packed protamine-Sepharose beads per mg Taq polymerase, in 0.05 M sodium acetate, 0.2 M potassium chloride, pH 5.0. After leaving on rotation for 10 minutes, the suspension was centrifuged for 3 minutes at 1000×g, and the supernatant containing the enzyme was tested for DNA contamination, using a Qubit quantitation system.
pH Optimization: pH at 4.4, 4.75, 5.5, 6, and 7.7 were tested. Buffers used for adjusting the pH included acetate pH 4, acetate pH 5, MES pH 6, HEPES pH 7, and Tris pH 8. In each tube, 4 ul of the protamine bead slurry (protamine from Sigma-Aldrich) was used, 10 ul of buffer, 7 ul of 3.5 M KCl, and 140 ul of the buffer exchanged Bio-HIS-ABS-Taq polymerase. The initial concentrations of the polymerase and DNA contaminant were 0.478 mg/mL and 65.3 ng/mL, respectively.
Table 4 illustrates the final concentrations of the Bio-HIS-ABS-Taq polymerase and DNA contaminant from a second set of experiment. The initial concentrations of the polymerase and DNA contaminant were 0.55 mg/mL and 65.3 ng/mL, respectively.
Table 5 illustrates the final concentrations of the Bio-HIS-ABS-Taq polymerase and DNA contaminant from an experiment that modulates the salt concentration. The initial concentrations of the polymerase and DNA contaminant were 0.487 mg/mL and 82.9 ng/mL, respectively.

[3] = relative to Control #2 (Taq, NEB)
[4] = KCl 0.145 M, initial polymerase 0.487 mg/mL
[5] = KCl 0.194 M, initial polymerase 0.487 mg/mL
[6] = KCl 0.242 M, initial polymerase 0.487 mg/mL
[7] = KCl 0.291 M, initial polymerase 0.487 mg/mL
[8] = KCl 0.340 M, initial polymerase 0.487 mg/mL
[9] = pH 4.4, initial polymerase 0.478 mg/mL
[10] = pH 4.75, initial polymerase 0.478 mg/mL
[11] = pH 5.5, initial polymerase 0.478 mg/mL
[12] = pH 6, initial polymerase 0.478 mg/mL
[13] = pH 7.7, initial polymerase 0.478 mg/mL
[14] = second set, pH 4.03, initial polymerase 0.55 mg/mL
[15] = second set, pH 4.22, initial polymerase 0.55 mg/mL
[16] = second set, pH 4.40, initial polymerase 0.55 mg/mL
[17] = second set, pH 4.80, initial polymerase 0.55 mg/mL

In the case of “Hot Start (NEB): Hot Start Taq DNA polymerase obtained from New England BioLabs (NEB)”, the “% activity” value (Taq polymerase; [3]) is reported as 91%.

With “Control #1 (Taq, NEB): Taq polymerase from New England BioLabs, tested as a control” the “% activity” value (Taq polymerase; Bio-HIS-ABS-Taq to HSA 1:1, relative to Control #1 (Taq, NEB)) was 100% and the “% activity” value (Taq polymerase; [3]) was 100%.

B1: Bio-HIS-ABS-Taq polymerase (protein)
chain: MASSLRQILDSQKIEWRSNAGGASHHHHHHGGASLAEAKVLANRELDKYGVSDYHKNLINNAKTVEGVKDLQAQVVESAKKARISEATDGLSDFLKSQTPAEDTVKSIELAEAKVLANRELDKYGVSDYYKNLINNAKTVEGVKALIDEILAALPGTFAHYMDPNLEALFQGPNSLPLFEPKGRVLLVDGHHLAYRTFHALKGLTTSRGEPVQAVYGFAKSLLKALKEDGDAVIVVFDAKAPSFRHEAYGGYKAGRAPTPEDFPRQLALIKELVDLLGLARLEVPGYEADDVLASLAKKAEKEGYEVRILTADKDLYQLLSDRIHVLHPEGYLITPAWLWEKYGLRPDQWADYRALTGDESDNLPGVKGIGEKTARKLLEEWGSLEALLKNLDRLKPAIREKILAHMDDLKLSWDLAKVRTDLPLEVDFAKRREPDRERLRAFLERLEFGSLLHEFGLLESPKALEEAPWPPPEGAFVGFVLSRKEPMWADLLALAAARGGRVHRAPEPYKALRDLKEARGLLAKDLSVLALREGLGLPPGDDPMLLAYLLDPSNTTPEGWPGRYGGEWTEEAGERAALSERLFANLWGRLEGEERLLWLYREVERPLSAVLAHMEATGVRLDVAYLRALSLEVAEEIARLEAEVFRLAGHPFNLNSRDQLERVLFDELGLPAIGKTEKTGKRSTSAAVLEALREAHPIVEKILQYRELTKLKSTYIDPLPDLIHPRTGRLHTRFNQTATATGRLSSSDPNLQNIPVRTPLGQRIRRAFIAEEGWLLVALDYSQIELRVLAHLSGDENLIRVFQEGRDIHTETASWMFGVPREAVDPLMRRAAKTINFGVLYGMSAHRLSQELAIPYEEAQAFIERYFQSFPKVRAWIEKTLEEGRRRGYVETLFGRRRYVPDLEARVKSVREAAERMAFNMPVQGTAADLMKLAMVKLFPRLEEMGARMLLQVHDELVLEAPKERAEAVARLAKEVMEGVYPLAVPLEVEVGIGEDWLSAKE
With B1 the % activity [1] was 73%.

B2: Bio-HIS-ABS-Taq polymerase: Taq polymerase with N-terminal biotin-tag, His6 and albumin-binding protein fusion (SEQ ID NO: 1), expressed in E. coli (protein)
chain: B1 chain
modifications: N-terminal biotin; Synthetic polypeptide Bio-HIS-ABS-Taq polymerase
With B2 the “% protein remaining (comp to buffer exch)” value (“% protein remaining” below) [2, 4] was 105%, the Qubit protein remaining [2, 4] was 0.513 mg/mL and the “% protein remaining” value [2, 5] was 101%. For the same molecule, the Qubit protein remaining [2, 5] was 0.495 mg/mL, the “% protein remaining” value [2, 6] was 99.9% and the Qubit protein remaining [2, 6] was 0.487 mg/mL. For the same molecule, the “% protein remaining” value [2, 7] was 70%, the Qubit protein remaining [2, 7] was 0.339 mg/mL and the “% protein remaining” value [2, 8] was 55%. For the same molecule, the Qubit protein remaining [2, 8] was 0.271 mg/mL, the “% protein remaining” value [2, 9] was 97% and the Qubit protein remaining [2, 9] was 0.462 mg/mL. The “% protein remaining” value [2, 10] was 60%, the Qubit protein remaining [2, 10] was 0.288 mg/mL and the “% protein remaining” value [2, 11] was 61%. For the same molecule, the Qubit protein remaining [2, 11] was 0.292 mg/mL, the “% protein remaining” value [2, 12] was 64% and the Qubit protein remaining [2, 12] was 0.308 mg/mL. For the same molecule, the “% protein remaining” value [2, 13] was 75%, the Qubit protein remaining [2, 13] was 0.360 mg/mL and the “% protein remaining” value [2, 14] was 94%. For the same molecule, the Qubit protein remaining [2, 14] was 0.459 mg/mL, the “% protein remaining” value [2, 15] was 95% and the Qubit protein remaining [2, 15] was 0.486 mg/mL. For the same molecule, the “% protein remaining” value [2, 16] was 96%, the Qubit protein remaining [2, 16] was 0.505 mg/mL and the “% protein remaining” value [2, 17] was 93%. The Qubit protein remaining [2, 17] was 0.497 mg/mL.
